Reference: the supplement of paper PMC9112550, “Optimization of the antimicrobial peptide Bac7 by deep mutational scanning” (BMC Biology, 2022)

Test system: Escherichia coli TOP10
Assay: shrunken log2 fold change of peptide-encoding DNA abundance (4.5 h post-induction vs induction); higher = less antimicrobial activity (less host growth inhibition)
Conditions: time post-induction: 4.5 h; library: site-saturation at positions 5, 18, 19, 20
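Also: peptides expressed intracellularly from a pBAD plasmid library in pooled LB shake-flask culture, induced with 0.3% L-arabinose, DNA abundance read by NGS, three biological replicates, DESeq2 with apeglm shrinkage.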

## RRIRVRPPRLPRPRPRPEHIPRP
  shrunken log2 fold change: -0.0362

## RRIRQRPPRLPRPRPRPRAVPRP
  shrunken log2 fold change: 2.78

## RRIRVRPPRLPRPRPRPQWHPRP
  shrunken log2 fold change: -0.311

## RRIRIRPPRLPRPRPRPLHFPRP
  shrunken log2 fold change: -0.511

## RRIRVRPPRLPRPRPRPRVNPRP
  shrunken log2 fold change: -0.159

## RRIRNRPPRLPRPRPRPRTTPRP
  shrunken log2 fold change: -0.0126

## RRIRVRPPRLPRPRPRPEYTPRP
  shrunken log2 fold change: -0.0361

## RRIRARPPRLPRPRPRPDAIPRP
  shrunken log2 fold change: 1.03

## RRIRFRPPRLPRPRPRPSKEPRP
  shrunken log2 fold change: 1.3

## RRIRSRPPRLPRPRPRPWEKPRP
  shrunken log2 fold change: -0.01

## RRIRARPPRLPRPRPRPHNLPRP
  shrunken log2 fold change: -0.201

## RRIRKRPPRLPRPRPRPQIWPRP
  shrunken log2 fold change: 0.138

## RRIRLRPPRLPRPRPRPCIWPRP
  shrunken log2 fold change: -0.21

## RRIRERPPRLPRPRPRPVGEPRP
  shrunken log2 fold change: -0.0892

## RRIRRRPPRLPRPRPRPMVSPRP
  shrunken log2 fold change: 0.0678

## RRIRERPPRLPRPRPRPVAHPRP
  shrunken log2 fold change: 0.0475

## RRIRPRPPRLPRPRPRPLNLPRP
  shrunken log2 fold change: 0.177

## RRIRFRPPRLPRPRPRPRILPRP
  shrunken log2 fold change: 0.0716

## RRIRLRPPRLPRPRPRPPWTPRP
  shrunken log2 fold change: 0.411

## RRIRMRPPRLPRPRPRPAFRPRP
  shrunken log2 fold change: 0.214

## RRIRFRPPRLPRPRPRPQWDPRP
  shrunken log2 fold change: -0.272

## RRIRTRPPRLPRPRPRPNTDPRP
  shrunken log2 fold change: -0.615

## RRIRRRPPRLPRPRPRPMNMPRP
  shrunken log2 fold change: 0.922

## RRIRHRPPRLPRPRPRPYANPRP
  shrunken log2 fold change: -0.271

## RRIRHRPPRLPRPRPRPDHWPRP
  shrunken log2 fold change: -0.0694

## RRIRFRPPRLPRPRPRPMSWPRP
  shrunken log2 fold change: 0.131

## RRIRRRPPRLPRPRPRPSNYPRP
  shrunken log2 fold change: -0.169

## RRIRDRPPRLPRPRPRPFAQPRP
  shrunken log2 fold change: 0.0821

## RRIRRRPPRLPRPRPRPLYQPRP
  shrunken log2 fold change: -0.315

## RRIRGRPPRLPRPRPRPLPGPRP
  shrunken log2 fold change: 1.01

## RRIRFRPPRLPRPRPRPITGPRP
  shrunken log2 fold change: -0.107

## RRIRMRPPRLPRPRPRPGYKPRP
  shrunken log2 fold change: -0.517

## RRIRMRPPRLPRPRPRPVTSPRP
  shrunken log2 fold change: -0.0914

## RRIRHRPPRLPRPRPRPLMWPRP
  shrunken log2 fold change: -0.218

## RRIRFRPPRLPRPRPRPTEYPRP
  shrunken log2 fold change: -0.423

## RRIRWRPPRLPRPRPRPYWRPRP
  shrunken log2 fold change: 0.00194

## RRIRHRPPRLPRPRPRPTLNPRP
  shrunken log2 fold change: 0.134

## RRIRDRPPRLPRPRPRPHLTPRP
  shrunken log2 fold change: 0.176

## RRIRPRPPRLPRPRPRPIMIPRP
  shrunken log2 fold change: -0.169

## RRIRRRPPRLPRPRPRPMPSPRP
  shrunken log2 fold change: 0.136

## RRIRERPPRLPRPRPRPPIFPRP
  shrunken log2 fold change: -0.0515

## RRIRCRPPRLPRPRPRPAVAPRP
  shrunken log2 fold change: 0.137

## RRIRMRPPRLPRPRPRPDYYPRP
  shrunken log2 fold change: -0.111

## RRIRWRPPRLPRPRPRPNMKPRP
  shrunken log2 fold change: -0.0784

## RRIRVRPPRLPRPRPRPADRPRP
  shrunken log2 fold change: 0.194

## RRIRRRPPRLPRPRPRPAPQPRP
  shrunken log2 fold change: 1.39

## RRIRIRPPRLPRPRPRPYGYPRP
  shrunken log2 fold change: -0.0764

## RRIRRRPPRLPRPRPRPHMMPRP
  shrunken log2 fold change: 0.176

## RRIRMRPPRLPRPRPRPLATPRP
  shrunken log2 fold change: 2.2

## RRIRPRPPRLPRPRPRPTFVPRP
  shrunken log2 fold change: 0.012

## RRIRVRPPRLPRPRPRPFHNPRP
  shrunken log2 fold change: -0.0884

## RRIRLRPPRLPRPRPRPDIHPRP
  shrunken log2 fold change: 0.126

## RRIRCRPPRLPRPRPRPSDRPRP
  shrunken log2 fold change: -0.473

## RRIRGRPPRLPRPRPRPLIGPRP
  shrunken log2 fold change: 0.561

## RRIRGRPPRLPRPRPRPLIAPRP
  shrunken log2 fold change: 1.27

## RRIRMRPPRLPRPRPRPSMGPRP
  shrunken log2 fold change: 0.0383

## RRIRDRPPRLPRPRPRPQCFPRP
  shrunken log2 fold change: 0.0363

## RRIRTRPPRLPRPRPRPEREPRP
  shrunken log2 fold change: -0.00458

## RRIRSRPPRLPRPRPRPEQGPRP
  shrunken log2 fold change: 0.0683

## RRIRIRPPRLPRPRPRPERKPRP
  shrunken log2 fold change: 0.00827

## RRIRVRPPRLPRPRPRPGDYPRP
  shrunken log2 fold change: -0.0161

## RRIRWRPPRLPRPRPRPKKCPRP
  shrunken log2 fold change: 0.18

## RRIRWRPPRLPRPRPRPTGYPRP
  shrunken log2 fold change: -0.145

## RRIRFRPPRLPRPRPRPIAVPRP
  shrunken log2 fold change: -0.116

## RRIRMRPPRLPRPRPRPAPTPRP
  shrunken log2 fold change: 1.13

## RRIRFRPPRLPRPRPRPVVTPRP
  shrunken log2 fold change: -0.756

## RRIRGRPPRLPRPRPRPDIAPRP
  shrunken log2 fold change: 0.782

## RRIRWRPPRLPRPRPRPHARPRP
  shrunken log2 fold change: 0.516

## RRIRKRPPRLPRPRPRPGIHPRP
  shrunken log2 fold change: 0.149

## RRIRSRPPRLPRPRPRPTKLPRP
  shrunken log2 fold change: 0.0448

## RRIRGRPPRLPRPRPRPLMMPRP
  shrunken log2 fold change: 0.647

## RRIRPRPPRLPRPRPRPTRAPRP
  shrunken log2 fold change: 0.707

## RRIRDRPPRLPRPRPRPMNQPRP
  shrunken log2 fold change: -0.334

## RRIRERPPRLPRPRPRPSSLPRP
  shrunken log2 fold change: -0.223

## RRIRHRPPRLPRPRPRPSNQPRP
  shrunken log2 fold change: -0.616

## RRIRERPPRLPRPRPRPKYLPRP
  shrunken log2 fold change: -0.77

## RRIRTRPPRLPRPRPRPMWNPRP
  shrunken log2 fold change: -0.418

## RRIRFRPPRLPRPRPRPRAAPRP
  shrunken log2 fold change: 0.408

## RRIRDRPPRLPRPRPRPAGEPRP
  shrunken log2 fold change: 0.0114

## RRIRGRPPRLPRPRPRPLCHPRP
  shrunken log2 fold change: 0.775

## RRIRGRPPRLPRPRPRPMVPPRP
  shrunken log2 fold change: 0.202

## RRIRPRPPRLPRPRPRPIMRPRP
  shrunken log2 fold change: -0.0819

## RRIRMRPPRLPRPRPRPAYSPRP
  shrunken log2 fold change: -0.166

## RRIRKRPPRLPRPRPRPRDLPRP
  shrunken log2 fold change: 0.255

## RRIRFRPPRLPRPRPRPQMQPRP
  shrunken log2 fold change: 0.203

## RRIRPRPPRLPRPRPRPSWWPRP
  shrunken log2 fold change: 0.394

## RRIRLRPPRLPRPRPRPHHCPRP
  shrunken log2 fold change: -0.301

## RRIRWRPPRLPRPRPRPPTCPRP
  shrunken log2 fold change: 0.614

## RRIRCRPPRLPRPRPRPMKVPRP
  shrunken log2 fold change: -0.126

## RRIRSRPPRLPRPRPRPVGRPRP
  shrunken log2 fold change: 0.65

## RRIRPRPPRLPRPRPRPNPTPRP
  shrunken log2 fold change: 0.0721

## RRIRGRPPRLPRPRPRPLGVPRP
  shrunken log2 fold change: 0.835

## RRIRWRPPRLPRPRPRPVRIPRP
  shrunken log2 fold change: -0.0854

## RRIRQRPPRLPRPRPRPIQYPRP
  shrunken log2 fold change: -0.151

## RRIRMRPPRLPRPRPRPVINPRP
  shrunken log2 fold change: -0.305

## RRIRRRPPRLPRPRPRPDLRPRP
  shrunken log2 fold change: 0.398

## RRIRVRPPRLPRPRPRPTCSPRP
  shrunken log2 fold change: 0.19

## RRIRFRPPRLPRPRPRPAFTPRP
  shrunken log2 fold change: -0.224

## RRIRHRPPRLPRPRPRPEMGPRP
  shrunken log2 fold change: 0.00396

## RRIRARPPRLPRPRPRPHAMPRP
  shrunken log2 fold change: 0.177

## RRIRIRPPRLPRPRPRPNSGPRP
  shrunken log2 fold change: -0.177

## RRIRHRPPRLPRPRPRPDKSPRP
  shrunken log2 fold change: -0.276

## RRIRTRPPRLPRPRPRPSPGPRP
  shrunken log2 fold change: 0.103

## RRIRWRPPRLPRPRPRPDRLPRP
  shrunken log2 fold change: -0.0216

## RRIRDRPPRLPRPRPRPCCSPRP
  shrunken log2 fold change: 0.166

## RRIRHRPPRLPRPRPRPGYPPRP
  shrunken log2 fold change: -0.0459

## RRIRARPPRLPRPRPRPNIDPRP
  shrunken log2 fold change: -0.0883

## RRIRNRPPRLPRPRPRPHAEPRP
  shrunken log2 fold change: 0.00246

## RRIRYRPPRLPRPRPRPMHIPRP
  shrunken log2 fold change: -0.0235

## RRIRLRPPRLPRPRPRPDHIPRP
  shrunken log2 fold change: -0.221

## RRIRFRPPRLPRPRPRPYSAPRP
  shrunken log2 fold change: -1.11

## RRIRPRPPRLPRPRPRPNQTPRP
  shrunken log2 fold change: 0.106

## RRIRERPPRLPRPRPRPCVNPRP
  shrunken log2 fold change: -0.182

## RRIRYRPPRLPRPRPRPNRSPRP
  shrunken log2 fold change: -0.496

## RRIRYRPPRLPRPRPRPFSWPRP
  shrunken log2 fold change: -0.235

## RRIRPRPPRLPRPRPRPPVSPRP
  shrunken log2 fold change: 0.0379

## RRIRVRPPRLPRPRPRPYTTPRP
  shrunken log2 fold change: -0.721

## RRIRVRPPRLPRPRPRPHFWPRP
  shrunken log2 fold change: -0.158

## RRIRCRPPRLPRPRPRPMHRPRP
  shrunken log2 fold change: 0.0421

## RRIRCRPPRLPRPRPRPTLRPRP
  shrunken log2 fold change: 0.15

## RRIRPRPPRLPRPRPRPIWTPRP
  shrunken log2 fold change: -0.262

## RRIRSRPPRLPRPRPRPVCGPRP
  shrunken log2 fold change: 0.548

## RRIRWRPPRLPRPRPRPFPIPRP
  shrunken log2 fold change: -0.169

## RRIRHRPPRLPRPRPRPNEEPRP
  shrunken log2 fold change: -0.00146

## RRIRIRPPRLPRPRPRPKERPRP
  shrunken log2 fold change: -0.00236

## RRIRRRPPRLPRPRPRPVKHPRP
  shrunken log2 fold change: 0.25

## RRIRRRPPRLPRPRPRPMLIPRP
  shrunken log2 fold change: -0.0813

## RRIRPRPPRLPRPRPRPTQVPRP
  shrunken log2 fold change: 0.124

## RRIRFRPPRLPRPRPRPECKPRP
  shrunken log2 fold change: -0.0133

## RRIRMRPPRLPRPRPRPGGEPRP
  shrunken log2 fold change: 1

## RRIRMRPPRLPRPRPRPPHNPRP
  shrunken log2 fold change: 0.767

## RRIRVRPPRLPRPRPRPITMPRP
  shrunken log2 fold change: -0.432

## RRIRMRPPRLPRPRPRPSYKPRP
  shrunken log2 fold change: -0.296

## RRIRLRPPRLPRPRPRPKTAPRP
  shrunken log2 fold change: 0.037

## RRIRMRPPRLPRPRPRPYFMPRP
  shrunken log2 fold change: -0.898

## RRIRHRPPRLPRPRPRPFCHPRP
  shrunken log2 fold change: -0.308

## RRIRYRPPRLPRPRPRPRWYPRP
  shrunken log2 fold change: -1.15

## RRIRDRPPRLPRPRPRPIKPPRP
  shrunken log2 fold change: -0.00115

## RRIRARPPRLPRPRPRPQYVPRP
  shrunken log2 fold change: -0.116

## RRIRSRPPRLPRPRPRPIYHPRP
  shrunken log2 fold change: -0.884

## RRIRDRPPRLPRPRPRPYPWPRP
  shrunken log2 fold change: -0.136

## RRIRERPPRLPRPRPRPAMQPRP
  shrunken log2 fold change: 0.0339

## RRIRHRPPRLPRPRPRPTPYPRP
  shrunken log2 fold change: -0.0416

## RRIRIRPPRLPRPRPRPDMHPRP
  shrunken log2 fold change: -0.0689

## RRIRNRPPRLPRPRPRPMQFPRP
  shrunken log2 fold change: -0.466

## RRIRYRPPRLPRPRPRPYGMPRP
  shrunken log2 fold change: -0.438

## RRIRTRPPRLPRPRPRPVIYPRP
  shrunken log2 fold change: 0.721

## RRIRQRPPRLPRPRPRPWRSPRP
  shrunken log2 fold change: 0.0241

## RRIRPRPPRLPRPRPRPGKNPRP
  shrunken log2 fold change: -0.00164

## RRIRNRPPRLPRPRPRPSDLPRP
  shrunken log2 fold change: -0.256
